We go through 8 molecules from patent US20200247889A1 (published 2020).

The labels stand for the following.
T1: cynomolgus TREM1 (cynomolgus, UniProt A0A2K5VHG8 21-233)
T1 chain: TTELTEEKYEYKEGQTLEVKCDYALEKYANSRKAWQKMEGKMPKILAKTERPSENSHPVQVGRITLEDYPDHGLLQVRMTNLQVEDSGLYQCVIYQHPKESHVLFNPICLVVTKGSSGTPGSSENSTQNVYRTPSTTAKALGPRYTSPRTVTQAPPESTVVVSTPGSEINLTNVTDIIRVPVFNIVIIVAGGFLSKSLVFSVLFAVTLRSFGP

T2: mouse TREM1 (mouse, UniProt Q9JKE2 21-230)
T2 chain: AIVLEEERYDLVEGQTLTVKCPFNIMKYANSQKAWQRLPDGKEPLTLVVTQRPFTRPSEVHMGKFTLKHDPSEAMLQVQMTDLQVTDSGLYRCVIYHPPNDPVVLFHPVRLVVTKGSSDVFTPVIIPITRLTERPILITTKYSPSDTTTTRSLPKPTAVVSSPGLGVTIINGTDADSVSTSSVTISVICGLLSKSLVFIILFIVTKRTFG

B1: Protein binding (receptor)
chain: T2 chain
B2: mAb0170 (antibody, V domains shown)
VH: EVQLVESGGGLVQPGGSLKLSCAASGFTFSTYAMHWVRQASGKGLEWVGRIRTKSSNYATYYAASVKGRFTISRDDSKNTAYLQMNSLKTEDTAVYYCTRDMGIRRQFAYWGQGTLVTVSS
VL: DIVLTQSPDSLAVSLGERATINCRASESVDTFDYSFLHWYQQKPGQPPKLLIYRASNLESGVPDRFSGSGSGTDFTLTISSLQAEDVAVYYCQQSNEDPYTFGQGTKLEIK
B3: Pi-9772 (antibody, V domains shown)
VH: EVQLVESGGGLVQPGGSLRLSCAASGFDLSYSSMHWVRQAPGKGLEWVAYISPYSGYTSYADSVKGRFTISADTSKNTAYLQMNSLRAEDTAVYYCARHGSWSYGFSSGFDYWGQGTLVTVSS
VL: DIQMTQSPSSLSASVGDRVTITCRASQSVSSAVAWYQQKPGKAPKLLIYSASSLYSGVPSRFSGSRSGTDFTLTISSLQPEDFATYYCQQYAYYYPITFGQGTKVEIKR
B4: afucosylated Pi-9772 (antibody, V domains shown)
VH: B3 VH
VL: B3 VL
modifications: afucosylated Fc glycan
B5: Pi-9067L (antibody, V domains shown)
VH: EVQLVESGGGLVQPGGSLRLSCAASGFDIYSYSIHWVRQAPGKGLEWVAYIYPSYGYTSYADSVKGRFTISADTSKNTAYLQMNSLRAEDTAVYYCARGAVAALDYWGQGTLVTVSS
VL: DIQMTQSPSSLSASVGDRVTITCRASQSVSSAVAWYQQKPGKAPKLLIYSASSLYSGVPSRFSGSRSGTDFTLTISSLQPEDFATYYCQQYGVSGYSLITFGQGTKVEIKR
B6: afucosylated Pi-9067L (antibody, V domains shown)
VH: B5 VH
VL: B5 VL
modifications: afucosylated Fc glycan
B7: afucosylated Pi-4928 (antibody, V domains shown)
VH: QVQLKESGPGLVQPSQTLSLTCTVSGFSITSSNVYWFRQPPGKGLEWMGNIWGDGSTDYNSSLKSRLTLSRDTSKNQVFLKINSLQSEDTATYFCTRSWEYYFDHWGQGVVVTVSS
VL: DIVLTQSPALAVSPGQRATLSCRASQSVTLSNVNLMNWYQQKPGQQPKLLIYHASNLASGIPTRFSGSGSGTDFTLTIDPVQADDIAAYYCQQSGESPRTFGGGTKVELKR
modifications: afucosylated Fc glycan
B8: Pi-4928 (antibody, V domains shown)
VH: B7 VH
VL: B7 VL

In the first assay the target is 9067s. Description: SPR. Background: In SPR one partner is held on a chip, and binding of the other changes the refractive index at the surface.
Consider B1, for which the Kd was 0.87 nM.

For the next assay, the target named is T1, cynomolgus TREM1. Description: cell binding.
Turning to B2, the half-maximal effective concentration (EC50) amounted to 0.13 nM.

Another assay concerns the target T2, mouse TREM1. Description: cell binding.
The molecule B3 showed an EC50 of 2.85 nM.

With B4, the EC50 was found to be 6.35 nM.

Take B5: the EC50 came out at 1.85 nM.

On to B6, for which the midpoint of the response, the EC50, lay at 2.9 nM.

On to B7, for which the EC50 is 2.32 nM.

With B8, it took 1.41 nM to reach a half-maximal effect (EC50).

For the next assay, the target named is T2, mouse TREM1. Description: SPR (Biacore); avid.
With B3, the equilibrium dissociation constant (Kd) worked out at 0.15 nM.

Turning to B4, the affinity, expressed as Kd, was 0.71 nM.

Take B5: the affinity, expressed as Kd, was 0.09 nM.

Molecule B6 gave a dissociation constant Kd of 0.15 nM.

B7: the Kd worked out at 0.11 nM.

B8 came in with a Kd of 0.11 nM.

The next assay concerns the target T1, cynomolgus TREM1. Description: flow cytometry cell binding. For orientation: A flow cytometer gives signals particle by particle.
Molecule B2 displayed a half-maximal effective concentration (EC50) of 0.13 nM.

A further assay addresses T2, mouse TREM1. Description: cell binding; BALB/c splenocyte neutrophils.
In turn, B3 had an EC50 of 6.83 nM.

B5 yielded a concentration for a half-maximal effect (EC50) of 0.98 nM.

In the case of B8, a half-maximal effect (EC50) was put at 1.36 nM.

A word on the Kd: it is the constant that tells how readily two partners part at equilibrium. Read a high Kd as a looser complex. The term EC50 denotes the concentration at which the effect is half-maximal. Low readings indicate an effect from little substance, high ones a need for much substance.
